In US20160039936A1, “FIBROBLAST GROWTH FACTOR RECEPTOR INHIBITION FOR THE TREATMENT OF DISEASE” (UNIVERSITY OF MIAMI, priority 2011, published 2016):

Columns and labels:
NFAT = NFAT gene reporter assay in NRVM; type: cell-based, rat; details: FGF 25 ng/ml, 2 hours
Description: The assay was done as described previously (Kuhn et al., 2009). Briefly, 24 hours after plating, NRVM were serum-starved and infected by an adenovirus (AdNFAT-luc, 20 moi) carrying a firefly luciferase construct under the transcriptional control of three consensus NFAT binding sites (Biomyx). To enable normalization of the ensuing measurements, NRVMs were also infected with an adenovirus (AdRenilla, 10 moi) encoding a renilla luciferase under the transcriptional control of a CMV promoter. Cells were incubated in FGF23 or FGF2 at 25 ng/ml for 2 hours after pre-treatment with or without cyclosporine A (1 μg/ml; Sigma-Aldrich), AZD4547 (5 nM; ChemieTek), or anti-FGFR4/U3-11 (U3Pharma; 10 μg/ml) for 60 minutes. Chemiluminescence was detected and quantified in 4×10^5 cells using the Dual-Luciferase Reporter Assay System (Promega) according to the manufacturer's instructions, and Infinite M200 PRO reader (Tecan). Firefly luciferase activities were then normalized to renilla luciferase activities. All experiments were conducted in triplicates and repeated three times.

[1] = Pharmacokinetic study of FGF23 in rats; type: in vivo, rat
Description: High systemic levels of FGF23 results in left ventricular hypertrophy in mice. […] Therefore, we administered FGF23 intravenously to determine if systemically elevated FGF23 levels could also induce LVH. We injected 40 μg/kg of recombinant FGF23 dissolved in 200 μl of PBS into the tail vein of adult wild type mice twice daily for 5 days with eight hours between daily doses. The dose of FGF23 was chosen based on published reports in which a similar dose stimulated ERK phosphorylation and increased Egr-1 expression (Urakawa et al., Nature, 444(7120):770-774, […]). The frequency of injections was chosen based on a pharmacokinetic study of adult wild type rats in which we injected a single dose of 40 μg/kg of FGF23. […] Thus, we estimated that two daily injections of 40 μg/kg would provide elevated FGF23 levels for at least 8 hours per day in mice. Control animals underwent the same injection schedule using 200 μl of PBS alone. On the morning of day 6, blood was collected for assay of FGF23, mice were sacrificed and the hearts examined.

isolated NRVM = assay: Ras/MAPK signaling (phospho-FRS2α, phospho-ERK1/2) Western blot in NRVM; type: cell-based, rat; details: 30 minutes, FGF alone
Description: HEK293 cells, NRVM or NMVM were treated with growth factors for 30 minutes to analyze activation of signal transduction mediators, or for 48 hours to analyze expression levels of hypertrophic marker proteins. Cells were scraped from 6-well plates using 500 μl CHAPS extraction buffer (20 mM Tris-HCl pH7.5, 500 mM NaCl, 0.5% CHAPS, protease inhibitor cocktail (Roche), protein phosphatase inhibitors [Sigma-Aldrich]) and incubated on ice for 30 minutes. The cell lysate was centrifuged at 14,000 rpm and 4° C. for 30 minutes, and the supernatant boiled in sample buffer and analyzed by SDS-PAGE and immunoblotting. For protein extraction from mouse hearts, tissue was isolated, minced and homogenized in RIPA extraction buffer (50 mM Tris-HCl pH 7.5, 200 mM NaCl, 1% Triton X-100, 0.25% DOC, 1 mM EDTA, 1 mM EGTA, protease and phosphatase inhibitors) at 1:10 (w:v), and protein lysates were prepared as described above. […]

B1: FGF23: recombinant mouse FGF23, 6His-tagged Tyr25-Val251 (Arg179Gln) (R&D Systems) (protein)
chain: YPDTSPLLGSNWGSLTHLYTATARTSYHLQIHRDGHVDGTPHQTIYSALMITSEDAGSVVITGAMTRRFLCMDLHGNIFGSLHFSPENCKFRQWTLENGYDVYLSQKHHYLVSLGRAKRIFQPGTNPPPFSQFLARRNEVPLLHFYTVRPRRHTQSAEDPPERDPLNVLKPRPRATPVPVSCSRELPSAEEGGPAASDPLGVLRRGRGDARGGAGGADRCRPFPRFV
modifications: left off: small tags and cut ends
luciferase activity (NFAT): significant elevation | half-life of circulating FGF23 ([1]; adult wild type rats, single dose of 40 μg/kg): 30 min | plasma levels ([1]; rats, single dose 40 μg/kg, four hours post injection): remained elevated above baseline

B2: FGF2: recombinant mouse FGF2 (Ala11-Ser154) (R&D Systems) (protein)
chain: ALPEDGGAAFPPGHFKDPKRLYCKNGGFFLRIHPDGRVDGVREKSDPHVKLQLQAEERGVVSIKGVCANRYLAMKEDGRLLASKCVTEECFFFERLESNNYNTYRSRKYSSWYVALKRTGQYKLGSKTGPGQKAILFLPMSAKS
levels of phosphorylated FRS2α and ERK1/2 (isolated NRVM): increased | luciferase activity (NFAT): did not increase
